Measured values reported in publication PMC11603662.

Columns and labels:
[1] = target: CaV2.1-F1406C (human); assay: co-IP; HEK293T cells coexpressing the two proteins, 10 uM MG132 for 24 h; lysates immunoprecipitated with anti-Myc on protein A/G sepharose, 16 h at 4 C; immunoblot
[2] = target: Myc-tagged human long carboxy-terminal CaV2.1 (CaV2.1-6myc) (human) (UniProt O00555); assay: as above

Sequence of CaV2.1-F1406C (human) (O00555 whole entry, stated change not applied): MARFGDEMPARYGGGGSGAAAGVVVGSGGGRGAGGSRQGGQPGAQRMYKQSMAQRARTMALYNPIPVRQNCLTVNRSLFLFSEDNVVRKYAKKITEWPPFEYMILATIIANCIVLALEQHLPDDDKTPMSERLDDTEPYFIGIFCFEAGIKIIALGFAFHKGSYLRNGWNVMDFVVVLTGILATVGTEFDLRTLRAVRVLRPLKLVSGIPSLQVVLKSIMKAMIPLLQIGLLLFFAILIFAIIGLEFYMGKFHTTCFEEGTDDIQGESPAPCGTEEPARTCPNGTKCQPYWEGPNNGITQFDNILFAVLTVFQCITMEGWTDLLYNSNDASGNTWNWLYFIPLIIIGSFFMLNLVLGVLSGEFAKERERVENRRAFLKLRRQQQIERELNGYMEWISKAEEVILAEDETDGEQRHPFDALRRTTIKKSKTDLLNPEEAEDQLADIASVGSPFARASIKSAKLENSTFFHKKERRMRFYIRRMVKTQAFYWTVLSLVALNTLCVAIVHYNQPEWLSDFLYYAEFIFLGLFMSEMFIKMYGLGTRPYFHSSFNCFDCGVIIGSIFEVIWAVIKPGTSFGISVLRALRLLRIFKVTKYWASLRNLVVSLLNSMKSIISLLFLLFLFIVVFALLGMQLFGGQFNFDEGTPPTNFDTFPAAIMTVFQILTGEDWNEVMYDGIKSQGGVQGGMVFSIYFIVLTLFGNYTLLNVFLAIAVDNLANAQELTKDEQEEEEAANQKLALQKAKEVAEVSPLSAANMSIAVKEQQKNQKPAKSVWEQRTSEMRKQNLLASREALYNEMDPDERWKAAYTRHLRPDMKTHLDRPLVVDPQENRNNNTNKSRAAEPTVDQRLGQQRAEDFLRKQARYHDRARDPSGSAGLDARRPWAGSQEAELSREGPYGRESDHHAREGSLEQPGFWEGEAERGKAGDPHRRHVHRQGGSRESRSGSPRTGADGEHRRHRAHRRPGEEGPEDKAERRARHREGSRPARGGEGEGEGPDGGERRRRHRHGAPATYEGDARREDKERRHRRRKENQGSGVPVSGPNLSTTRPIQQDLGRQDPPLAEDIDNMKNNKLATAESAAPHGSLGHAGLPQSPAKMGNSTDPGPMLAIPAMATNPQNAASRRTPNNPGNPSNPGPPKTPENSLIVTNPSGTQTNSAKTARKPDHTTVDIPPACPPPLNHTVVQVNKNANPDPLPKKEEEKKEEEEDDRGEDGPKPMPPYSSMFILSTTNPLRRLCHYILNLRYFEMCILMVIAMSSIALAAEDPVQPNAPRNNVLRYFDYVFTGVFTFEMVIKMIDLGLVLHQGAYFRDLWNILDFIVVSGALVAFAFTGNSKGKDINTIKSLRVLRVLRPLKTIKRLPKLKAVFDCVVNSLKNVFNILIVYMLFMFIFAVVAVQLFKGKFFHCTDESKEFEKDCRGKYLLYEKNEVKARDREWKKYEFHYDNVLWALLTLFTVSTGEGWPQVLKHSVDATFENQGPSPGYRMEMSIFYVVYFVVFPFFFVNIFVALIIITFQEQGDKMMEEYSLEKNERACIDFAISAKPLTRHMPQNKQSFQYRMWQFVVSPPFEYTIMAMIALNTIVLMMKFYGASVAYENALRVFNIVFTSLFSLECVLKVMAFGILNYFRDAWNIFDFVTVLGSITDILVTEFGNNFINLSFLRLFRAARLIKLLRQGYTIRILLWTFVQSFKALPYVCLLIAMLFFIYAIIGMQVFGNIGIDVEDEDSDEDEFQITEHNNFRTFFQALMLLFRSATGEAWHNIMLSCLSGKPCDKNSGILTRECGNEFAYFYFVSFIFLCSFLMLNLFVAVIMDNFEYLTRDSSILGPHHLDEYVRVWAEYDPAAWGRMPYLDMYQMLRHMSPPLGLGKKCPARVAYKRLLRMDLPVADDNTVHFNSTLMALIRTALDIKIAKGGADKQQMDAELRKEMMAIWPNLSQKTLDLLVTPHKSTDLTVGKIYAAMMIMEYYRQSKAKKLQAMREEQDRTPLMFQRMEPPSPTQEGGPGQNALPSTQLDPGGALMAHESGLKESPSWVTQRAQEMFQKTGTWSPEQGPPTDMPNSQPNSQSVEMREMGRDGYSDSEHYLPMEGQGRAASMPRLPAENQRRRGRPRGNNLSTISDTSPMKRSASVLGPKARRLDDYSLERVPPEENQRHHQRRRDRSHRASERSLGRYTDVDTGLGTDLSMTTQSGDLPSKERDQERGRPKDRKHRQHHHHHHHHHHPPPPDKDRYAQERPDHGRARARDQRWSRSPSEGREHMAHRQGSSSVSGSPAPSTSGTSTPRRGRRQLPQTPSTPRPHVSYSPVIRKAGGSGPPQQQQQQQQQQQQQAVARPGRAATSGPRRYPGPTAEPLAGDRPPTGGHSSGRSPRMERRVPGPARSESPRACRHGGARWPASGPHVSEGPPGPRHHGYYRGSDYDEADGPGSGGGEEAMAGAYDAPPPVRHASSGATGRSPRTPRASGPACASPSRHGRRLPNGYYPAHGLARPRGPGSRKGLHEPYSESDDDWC

Substance: HA-tagged rat Pin1 (HA-Pin1) (enzyme)
- normalized coimmunoprecipitated Pin1 protein level (relative to CaV2.1 WT) [1]: 1.32
- normalized coimmunoprecipitated Pin1 protein level (relative to CaV2.1 WT) [2]: 1
